Where a chain is given by its changes, count along the chain named.
B1: ChdC (protein)
chain: MSQAAETLDGWYSLHLFYAVDWASLRIVPKDERDALVTEFQSFLENTATVRSSKSGDQAIYNITGQKADLLLWFLRPEMKSLNHIENEFNKLRIADFLIPTYSYVSVIELSNYLAGKSDEDPYENPHIKARLYPELPHSDYICFYPMNKRRNETYNWYMLTMEERQKLMYDHGMIGRKYAGKIKQFITGSVGFDDFEWGVTLFSDDVLQFKKIVYEMRFDETTARYGEFGSFFVGHIINTNEFDQFFAIS
modifications: coproporphyrin III bound to ChdC
B2: CpfC (protein)
chain: MTKKMGLLVMAYGTPYKESDIEPYYTDIRHGKRPSEEELQDLKDRYEFIGGLSPLAGTTDDQADALVSALNKAYADVEFKLYLGLKHISPFIEDAVEQMHNDGITEAITVVLAPHYSSFSVGSYDKRADEEAAKYGIQLTHVKHYYEQPKFIEYWTNKVNETLAQIPEEEHKDTVLVVSAHSLPKGLIEKNNDPYPQELEHTALLIKEQSNIEHIAIGWQSEGNTGTPWLGPDVQDLTRDLYEKHQYKNFIYTPVGFVCEHLEVLYDNDYECKVVCDDIGANYYRPKMPNTHPLFIGAIIDEIKSIF
modifications: coproporphyrin III bound to CpfC
B3: CpfC (protein)
chain: B2 chain

Legend:
[1] = target: T1, ChdC (SaChdC; coproheme decarboxylase) (Staphylococcus aureus, UniProt A6QEP0); test: tryptophan fluorescence quenching; format: binding; settings: 50 mM Tris pH 8, 150 mM NaCl, 25 °C; Langmuir-Hill fit
T1 sequence (A6QEP0 1-250): B1 chain

[2] = target: T2, CpfC (coproporphyrin ferrochelatase; HemH) (Staphylococcus aureus, UniProt P64125); test: tryptophan fluorescence quenching; format: binding; settings: 50 mM Tris pH 8, 150 mM NaCl, 25 °C
T2 sequence (P64125 1-307): B2 chain with I300V

[3] = target: B3; test: UV-vis titration
[4] = target: T3, ChdC (Staphylococcus aureus, UniProt Q2FJ56); test: UV-vis titration
T3 chain: B1 chain

[5] = target: T3, ChdC; test: UV-vis titration and fluorescence quenching

CC1=C(CCC(=O)O)c2cc3nc(cc4[nH]c(cc5[nH]c(cc1n2)c(C)c5CCC(=O)O)c(CCC(=O)O)c4C)C(CCC(=O)O)=C3C [coproporphyrin]
KD [1]: ChdC binds coproporphyrin with an affinity that resembles that for coproheme
KD [2]: affinities of CpfC and/or ChdC for coproporphyrin and/or coproheme were measured titrimetrically

B1
Kd [3]: 40 µM

B2
Kd [4]: 80 µM

B3
Kd [5]: 17 µM

— article PMC7160669 (Biochemistry, 2019)
